This note sets out measurements from publication PMC4422687.

The assay concerns the target soluble HA-tagged canine SLAM (UniProt Q95MM9). The conditions noted are these: parent: est. 100; read off a plot.

With “CDV H-wt, full length attachment protein (hemagglutinin) H of canine distemper virus strain A75/17, FLAG-tagged D132A”, the percent of parent was 98 % to control.

In the case of “CDV H-wt, full length attachment protein (hemagglutinin) H of canine distemper virus strain A75/17, FLAG-tagged P127A”, the percent of parent is 61 % to control.

As to “CDV H-wt, full length attachment protein (hemagglutinin) H of canine distemper virus strain A75/17, FLAG-tagged N128A”, the percent of parent was 84 % to control.

Turning to “CDV H-wt, full length attachment protein (hemagglutinin) H of canine distemper virus strain A75/17, FLAG-tagged R129A”, the percent of parent is 110 % to control.

Regarding “CDV H-wt, full length attachment protein (hemagglutinin) H of canine distemper virus strain A75/17, FLAG-tagged E130A”, the percent of parent was 54 % to control.

For “CDV H-wt, full length attachment protein (hemagglutinin) H of canine distemper virus strain A75/17, FLAG-tagged R134A”, the percent of parent is 110 % to control.

As to “CDV H-wt, full length attachment protein (hemagglutinin) H of canine distemper virus strain A75/17, FLAG-tagged W138A”, the percent of parent is 98 % to control.

On to “CDV H-wt, full length attachment protein (hemagglutinin) H of canine distemper virus strain A75/17, FLAG-tagged F131A”, for which the percent of parent was 93 % to control.

For “CDV H-wt, full length attachment protein (hemagglutinin) H of canine distemper virus strain A75/17, FLAG-tagged L136A”, the percent of parent was 70 % to control.

As for “CDV H-wt, full length attachment protein (hemagglutinin) H of canine distemper virus strain A75/17, FLAG-tagged H137A”, the percent of parent was 86 % to control.

On to “CDV H-wt, full length attachment protein (hemagglutinin) H of canine distemper virus strain A75/17, FLAG-tagged F133A”, for which the percent of parent is 160 % to control.

With “CDV H-wt, full length attachment protein (hemagglutinin) H of canine distemper virus strain A75/17, FLAG-tagged D135A”, the percent of parent is 130 % to control.

Consider “CDV H-wt, full length attachment protein (hemagglutinin) H of canine distemper virus strain A75/17, FLAG-tagged N126A”, for which the percent of parent is 94 % to control.
